Experimental findings from article PMC3136511 are described below.

The target in the test is Nup145N(443–605) (Saccharomyces cerevisiae) (UniProt P49687). Nature of the test: SAXS.

For the substance “Nup145N(443–605) (from UniProt P49687 443-605) (domain or fragment)”, the dimer fraction came to 98% and the stoichiometry N came to 2.
